{"source": "patent US20260055162A1", "assay_in_all_cases": "cell-based or functional assay", "key": {"[1]": {"target": "AA-TGFB-071 (TGFB-071), TGF-BR2 ECD-SLAMF5 TM-SLAMF5 ICD", "sequence (chain, as listed by the source limits assumed, form in doubt)": "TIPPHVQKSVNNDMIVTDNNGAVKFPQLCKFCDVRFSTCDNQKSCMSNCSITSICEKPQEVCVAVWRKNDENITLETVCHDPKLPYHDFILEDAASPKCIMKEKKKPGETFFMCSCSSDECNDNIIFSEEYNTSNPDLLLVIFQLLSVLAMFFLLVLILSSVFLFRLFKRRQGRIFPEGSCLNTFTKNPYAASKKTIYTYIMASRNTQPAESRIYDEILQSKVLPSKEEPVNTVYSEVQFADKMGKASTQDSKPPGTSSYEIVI"}, "[2]": {"target": "AA-TGFB-072 (TGFB-072), TGF-BR2 ECD-SLAMF6 TM-SLAMF6 ICD", "sequence (chain, as listed by the source limits assumed, form in doubt)": "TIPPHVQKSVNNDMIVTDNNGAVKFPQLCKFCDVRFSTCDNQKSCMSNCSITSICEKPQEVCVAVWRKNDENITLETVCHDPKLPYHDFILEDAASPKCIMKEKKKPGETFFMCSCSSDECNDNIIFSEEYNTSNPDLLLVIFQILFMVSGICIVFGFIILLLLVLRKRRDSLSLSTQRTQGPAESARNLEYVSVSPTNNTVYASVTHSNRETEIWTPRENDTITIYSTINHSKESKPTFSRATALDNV"}, "[3]": {"target": "AA-TGFB-073 (TGFB-073), TGF-BR2 ECD-SLAMF7 TM-SLAMF7 ICD", "sequence (chain, as listed by the source limits assumed, form in doubt)": "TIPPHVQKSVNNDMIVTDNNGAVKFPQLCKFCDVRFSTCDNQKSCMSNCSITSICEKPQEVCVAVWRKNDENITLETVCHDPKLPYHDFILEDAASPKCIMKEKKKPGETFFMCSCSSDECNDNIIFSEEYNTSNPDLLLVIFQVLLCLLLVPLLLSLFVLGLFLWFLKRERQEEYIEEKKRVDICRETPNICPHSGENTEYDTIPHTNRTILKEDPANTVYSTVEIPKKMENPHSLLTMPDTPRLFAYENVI"}, "[4]": {"target": "AA-TGFB-075 (TGFB-075), TGF-BR2 ECD-SLAMF3 TM-SLAMF3 ICD", "sequence (chain, as listed by the source limits assumed, form in doubt)": "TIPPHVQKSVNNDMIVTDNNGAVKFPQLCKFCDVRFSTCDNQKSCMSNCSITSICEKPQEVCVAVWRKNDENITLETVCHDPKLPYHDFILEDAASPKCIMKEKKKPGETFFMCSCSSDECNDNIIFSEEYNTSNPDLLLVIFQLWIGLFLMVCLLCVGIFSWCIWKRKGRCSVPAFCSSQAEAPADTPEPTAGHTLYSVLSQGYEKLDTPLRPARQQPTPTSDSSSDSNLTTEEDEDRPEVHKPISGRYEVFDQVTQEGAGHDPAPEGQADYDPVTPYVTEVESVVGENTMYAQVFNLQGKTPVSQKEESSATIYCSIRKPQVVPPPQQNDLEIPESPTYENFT"}, "[5]": {"target": "AA-TGFB-076 (TGFB-076), TGF-BR2 ECD-EPOR TM-EPOR ICD", "sequence (chain, as listed by the source limits assumed, form in doubt)": "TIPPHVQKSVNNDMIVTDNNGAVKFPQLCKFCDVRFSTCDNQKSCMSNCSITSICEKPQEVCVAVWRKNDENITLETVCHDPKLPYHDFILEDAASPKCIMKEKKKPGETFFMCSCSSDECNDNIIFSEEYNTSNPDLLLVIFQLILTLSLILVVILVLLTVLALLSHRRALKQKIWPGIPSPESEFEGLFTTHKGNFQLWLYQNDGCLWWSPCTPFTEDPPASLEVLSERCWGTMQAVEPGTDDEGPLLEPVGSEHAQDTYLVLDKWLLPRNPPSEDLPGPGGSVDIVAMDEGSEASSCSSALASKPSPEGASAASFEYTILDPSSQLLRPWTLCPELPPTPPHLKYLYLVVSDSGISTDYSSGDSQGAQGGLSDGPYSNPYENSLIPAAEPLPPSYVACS"}, "[6]": {"target": "AA-TGFB-077 (TGFB-077), TGF-BR2 ECD-GCSFR TM-GCSFR ICD", "sequence (chain, as listed by the source limits assumed, form in doubt)": "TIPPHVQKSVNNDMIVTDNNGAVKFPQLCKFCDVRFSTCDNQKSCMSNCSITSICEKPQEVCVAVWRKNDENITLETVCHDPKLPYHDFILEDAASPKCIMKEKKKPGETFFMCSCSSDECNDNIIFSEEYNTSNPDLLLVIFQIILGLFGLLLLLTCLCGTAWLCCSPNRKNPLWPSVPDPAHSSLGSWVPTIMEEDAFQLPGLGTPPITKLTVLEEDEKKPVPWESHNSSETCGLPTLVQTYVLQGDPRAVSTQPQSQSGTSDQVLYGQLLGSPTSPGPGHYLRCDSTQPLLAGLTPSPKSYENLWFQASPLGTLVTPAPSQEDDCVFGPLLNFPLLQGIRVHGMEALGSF"}, "[7]": {"target": "AA-TGFB-079 (TGFB-079), TGF-BR2 ECD-FGFR1 TM-FGFR1 ICD", "sequence (chain, as listed by the source limits assumed, form in doubt)": "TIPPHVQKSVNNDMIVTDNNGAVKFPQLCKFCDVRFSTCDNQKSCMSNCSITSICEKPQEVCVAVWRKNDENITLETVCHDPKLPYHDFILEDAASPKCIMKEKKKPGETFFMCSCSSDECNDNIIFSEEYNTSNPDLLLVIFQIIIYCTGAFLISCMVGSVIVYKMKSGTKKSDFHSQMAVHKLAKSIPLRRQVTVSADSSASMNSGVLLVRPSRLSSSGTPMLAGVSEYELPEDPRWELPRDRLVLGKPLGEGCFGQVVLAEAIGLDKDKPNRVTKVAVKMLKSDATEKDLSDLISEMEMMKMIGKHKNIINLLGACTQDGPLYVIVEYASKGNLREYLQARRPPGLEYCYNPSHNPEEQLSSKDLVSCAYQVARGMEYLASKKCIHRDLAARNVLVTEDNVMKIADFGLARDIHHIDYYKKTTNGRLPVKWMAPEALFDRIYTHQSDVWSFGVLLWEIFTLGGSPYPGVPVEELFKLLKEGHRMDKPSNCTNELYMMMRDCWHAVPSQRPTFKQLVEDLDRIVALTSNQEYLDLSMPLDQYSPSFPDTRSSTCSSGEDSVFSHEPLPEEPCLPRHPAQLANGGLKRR"}, "[8]": {"target": "AA-TGFB-080 (TGFB-080), TGF-BR2 ECD-DNAM1 TM-DNAM1 ICD", "sequence (chain, as listed by the source limits assumed, form in doubt)": "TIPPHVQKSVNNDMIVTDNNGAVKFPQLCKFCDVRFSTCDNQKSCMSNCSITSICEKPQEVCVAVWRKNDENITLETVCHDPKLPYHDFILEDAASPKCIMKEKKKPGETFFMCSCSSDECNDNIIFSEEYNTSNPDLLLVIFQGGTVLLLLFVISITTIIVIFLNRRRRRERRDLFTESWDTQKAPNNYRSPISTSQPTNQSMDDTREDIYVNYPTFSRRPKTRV"}, "[9]": {"target": "AA-TGFB-083 (TGFB-083), TGF-BR2 ECD-NKp44 TM-NKp44 ICD", "sequence (chain, as listed by the source limits assumed, form in doubt)": "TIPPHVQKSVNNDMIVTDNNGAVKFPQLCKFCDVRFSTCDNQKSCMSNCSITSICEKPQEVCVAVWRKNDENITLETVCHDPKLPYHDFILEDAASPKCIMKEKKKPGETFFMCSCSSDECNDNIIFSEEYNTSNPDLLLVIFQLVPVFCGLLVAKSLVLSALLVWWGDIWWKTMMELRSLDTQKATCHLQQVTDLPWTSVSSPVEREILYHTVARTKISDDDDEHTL"}, "[10]": {"target": "AA-TGFB-086 (TGFB-086), TGF-BR2 ECD-CD28 Long TM-IRAK4 ICD", "sequence (chain, as listed by the source limits assumed, form in doubt)": "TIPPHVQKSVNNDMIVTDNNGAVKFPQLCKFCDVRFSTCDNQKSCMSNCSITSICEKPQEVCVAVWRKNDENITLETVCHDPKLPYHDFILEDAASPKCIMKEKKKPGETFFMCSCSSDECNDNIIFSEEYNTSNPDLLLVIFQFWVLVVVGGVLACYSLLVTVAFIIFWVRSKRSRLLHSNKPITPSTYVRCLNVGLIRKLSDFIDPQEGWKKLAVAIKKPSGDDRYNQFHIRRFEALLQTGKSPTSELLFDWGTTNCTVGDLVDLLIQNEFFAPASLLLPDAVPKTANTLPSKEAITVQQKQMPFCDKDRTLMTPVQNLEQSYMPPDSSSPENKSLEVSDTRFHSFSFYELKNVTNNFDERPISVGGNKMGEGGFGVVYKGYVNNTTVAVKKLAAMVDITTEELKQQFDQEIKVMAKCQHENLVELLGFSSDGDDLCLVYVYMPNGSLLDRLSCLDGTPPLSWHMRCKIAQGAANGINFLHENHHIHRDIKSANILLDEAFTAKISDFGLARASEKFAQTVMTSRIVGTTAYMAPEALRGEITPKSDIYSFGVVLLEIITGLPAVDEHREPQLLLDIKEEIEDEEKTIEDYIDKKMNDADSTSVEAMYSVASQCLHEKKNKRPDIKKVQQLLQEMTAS"}, "[11]": {"target": "AA-TGFB-087 (TGFB-087), TGF-BR2 ECD-TLR4 TM-TLR4 ICD", "sequence (chain, as listed by the source limits assumed, form in doubt)": "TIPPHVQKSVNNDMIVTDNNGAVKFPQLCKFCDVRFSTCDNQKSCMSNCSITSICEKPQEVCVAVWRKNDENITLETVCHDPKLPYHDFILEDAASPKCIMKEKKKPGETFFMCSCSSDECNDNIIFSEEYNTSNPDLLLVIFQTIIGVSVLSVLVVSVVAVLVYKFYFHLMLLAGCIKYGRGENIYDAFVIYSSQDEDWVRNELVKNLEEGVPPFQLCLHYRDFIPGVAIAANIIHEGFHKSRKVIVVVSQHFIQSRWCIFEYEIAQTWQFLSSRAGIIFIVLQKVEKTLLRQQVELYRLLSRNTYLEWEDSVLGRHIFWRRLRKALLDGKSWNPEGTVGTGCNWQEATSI"}, "[12]": {"target": "AA-TGFB-094 (TGFB-094), TGF-BR2 ECD-CD28 Long TM-Lyn ICD", "sequence (chain, as listed by the source limits assumed, form in doubt)": "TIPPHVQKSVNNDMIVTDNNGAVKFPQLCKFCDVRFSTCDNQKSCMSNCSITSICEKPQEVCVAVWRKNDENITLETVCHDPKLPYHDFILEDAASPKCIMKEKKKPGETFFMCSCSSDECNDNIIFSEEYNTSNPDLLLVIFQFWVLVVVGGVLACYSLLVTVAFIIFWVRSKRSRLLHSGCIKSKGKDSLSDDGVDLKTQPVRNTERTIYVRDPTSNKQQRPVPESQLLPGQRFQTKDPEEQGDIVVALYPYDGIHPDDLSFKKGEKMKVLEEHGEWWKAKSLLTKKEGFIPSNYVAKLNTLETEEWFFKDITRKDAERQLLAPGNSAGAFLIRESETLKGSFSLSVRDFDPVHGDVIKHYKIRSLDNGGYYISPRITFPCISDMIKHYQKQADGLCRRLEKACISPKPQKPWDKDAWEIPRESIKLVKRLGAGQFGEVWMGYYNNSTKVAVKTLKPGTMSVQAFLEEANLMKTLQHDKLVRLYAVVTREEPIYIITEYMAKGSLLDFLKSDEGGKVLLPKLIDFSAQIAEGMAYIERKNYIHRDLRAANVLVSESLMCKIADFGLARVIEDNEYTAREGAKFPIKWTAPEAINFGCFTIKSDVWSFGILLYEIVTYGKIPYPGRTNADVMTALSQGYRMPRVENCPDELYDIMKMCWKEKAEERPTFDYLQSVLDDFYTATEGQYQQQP"}, "[13]": {"target": "AA-TGFB-096 (TGFB-096), TGF-BR2 ECD-CD28 Long TM-Fgr ICD"}}}
{"substance": "recombinant TGF-B1 cytokine (from UniProt P01137 279-390) (ligand)", "values": [{"measurement": "Average IP-10 Secretion, 10 ng/mL TGF-B1", "setting": "[1]", "result": 2300}, {"measurement": "5-Day Fold Expansion of NK cells, 10 ng/mL TGF-B1", "setting": "[2]", "result": 3.89, "unit": "fold"}, {"measurement": "Average % Killing (SKOV-3), 10 ng/mL TGF-B1", "setting": "[2]", "result": 15, "unit": "%"}, {"measurement": "Average IFNg Secretion, 10 ng/mL TGF-B1", "setting": "[2]", "result": 8700, "unit": "pg/mL"}, {"measurement": "Average IP-10 Secretion, 10 ng/mL TGF-B1", "setting": "[2]", "result": 1880}, {"measurement": "5-Day Fold Expansion of NK cells, 10 ng/mL TGF-B1", "setting": "[3]", "result": 3.08, "unit": "fold"}, {"measurement": "Average % Killing (SKOV-3), 10 ng/mL TGF-B1", "setting": "[3]", "result": 13.1, "unit": "%"}, {"measurement": "Average IFNg Secretion, 10 ng/mL TGF-B1", "setting": "[3]", "result": 6910, "unit": "pg/mL"}, {"measurement": "Average IP-10 Secretion, 10 ng/mL TGF-B1", "setting": "[3]", "result": 1420}, {"measurement": "5-Day Fold Expansion of NK cells, 10 ng/mL TGF-B1", "setting": "[4]", "result": 3.86, "unit": "fold"}, {"measurement": "Average % Killing (SKOV-3), 10 ng/mL TGF-B1", "setting": "[4]", "result": 9.64, "unit": "%"}, {"measurement": "Average IFNg Secretion, 10 ng/mL TGF-B1", "setting": "[4]", "result": 4420, "unit": "pg/mL"}, {"measurement": "Average IP-10 Secretion, 10 ng/mL TGF-B1", "setting": "[4]", "result": 1040}, {"measurement": "5-Day Fold Expansion of NK cells, 10 ng/mL TGF-B1", "setting": "[5]", "result": 2.94, "unit": "fold"}, {"measurement": "Average % Killing (SKOV-3), 10 ng/mL TGF-B1", "setting": "[5]", "result": 14.3, "unit": "%"}, {"measurement": "Average IFNg Secretion, 10 ng/mL TGF-B1", "setting": "[5]", "result": 6650, "unit": "pg/mL"}, {"measurement": "Average IP-10 Secretion, 10 ng/mL TGF-B1", "setting": "[5]", "result": 1340}, {"measurement": "5-Day Fold Expansion of NK cells, 10 ng/mL TGF-B1", "setting": "[6]", "result": 2.52, "unit": "fold"}, {"measurement": "Average % Killing (SKOV-3), 10 ng/mL TGF-B1", "setting": "[6]", "result": 14.4, "unit": "%"}, {"measurement": "Average IFNg Secretion, 10 ng/mL TGF-B1", "setting": "[6]", "result": 6640, "unit": "pg/mL"}, {"measurement": "Average IP-10 Secretion, 10 ng/mL TGF-B1", "setting": "[6]", "result": 1410}, {"measurement": "5-Day Fold Expansion of NK cells, 10 ng/mL TGF-B1", "setting": "[7]", "result": 1.49, "unit": "fold"}, {"measurement": "Average % Killing (SKOV-3), 10 ng/mL TGF-B1", "setting": "[7]", "result": 9.28, "unit": "%"}, {"measurement": "Average IFNg Secretion, 10 ng/mL TGF-B1", "setting": "[7]", "result": 3580, "unit": "pg/mL"}, {"measurement": "Average IP-10 Secretion, 10 ng/mL TGF-B1", "setting": "[7]", "result": 685}, {"measurement": "5-Day Fold Expansion of NK cells, 10 ng/mL TGF-B1", "setting": "[8]", "result": 2.11, "unit": "fold"}, {"measurement": "Average % Killing (SKOV-3), 10 ng/mL TGF-B1", "setting": "[8]", "result": 10.8, "unit": "%"}, {"measurement": "Average IFNg Secretion, 10 ng/mL TGF-B1", "setting": "[8]", "result": 4380, "unit": "pg/mL"}, {"measurement": "Average IP-10 Secretion, 10 ng/mL TGF-B1", "setting": "[8]", "result": 1230}, {"measurement": "5-Day Fold Expansion of NK cells, 10 ng/mL TGF-B1", "setting": "[9]", "result": 2.08, "unit": "fold"}, {"measurement": "Average % Killing (SKOV-3), 10 ng/mL TGF-B1", "setting": "[9]", "result": 14.1, "unit": "%"}, {"measurement": "Average IFNg Secretion, 10 ng/mL TGF-B1", "setting": "[9]", "result": 3960, "unit": "pg/mL"}, {"measurement": "Average IP-10 Secretion, 10 ng/mL TGF-B1", "setting": "[9]", "result": 968}, {"measurement": "5-Day Fold Expansion of NK cells, 10 ng/mL TGF-B1", "setting": "[10]", "result": 1.76, "unit": "fold"}, {"measurement": "Average % Killing (SKOV-3), 10 ng/mL TGF-B1", "setting": "[10]", "result": 7.83, "unit": "%"}, {"measurement": "Average IFNg Secretion, 10 ng/mL TGF-B1", "setting": "[10]", "result": 3150, "unit": "pg/mL"}, {"measurement": "Average IP-10 Secretion, 10 ng/mL TGF-B1", "setting": "[10]", "result": 938}, {"measurement": "5-Day Fold Expansion of NK cells, 10 ng/mL TGF-B1", "setting": "[11]", "result": 2.51, "unit": "fold"}, {"measurement": "Average % Killing (SKOV-3), 10 ng/mL TGF-B1", "setting": "[11]", "result": 11.9, "unit": "%"}, {"measurement": "Average IFNg Secretion, 10 ng/mL TGF-B1", "setting": "[11]", "result": 6060, "unit": "pg/mL"}, {"measurement": "Average IP-10 Secretion, 10 ng/mL TGF-B1", "setting": "[11]", "result": 1260}, {"measurement": "5-Day Fold Expansion of NK cells, 10 ng/mL TGF-B1", "setting": "[12]", "result": 1.2, "unit": "fold"}, {"measurement": "Average % Killing (SKOV-3), 10 ng/mL TGF-B1", "setting": "[12]", "result": 16.5, "unit": "%"}, {"measurement": "Average IFNg Secretion, 10 ng/mL TGF-B1", "setting": "[12]", "result": "> 9000", "unit": "pg/mL"}, {"measurement": "Average IP-10 Secretion, 10 ng/mL TGF-B1", "setting": "[12]", "result": 3210}, {"measurement": "5-Day Fold Expansion of NK cells, 10 ng/mL TGF-B1", "setting": "[13]", "result": 1, "unit": "fold"}, {"measurement": "Average % Killing (SKOV-3), 10 ng/mL TGF-B1", "setting": "[13]", "result": 16, "unit": "%"}, {"measurement": "Average IFNg Secretion, 10 ng/mL TGF-B1", "setting": "[13]", "result": "> 9000", "unit": "pg/mL"}, {"measurement": "Average IP-10 Secretion, 10 ng/mL TGF-B1", "setting": "[13]", "result": 2330}]}
